# Measured values from IntAct's records for PubMed 35512704.
# B1: Speckle-type POZ protein (Homo sapiens), O43791 (parent)
# chain: MSRVPSPPPPAEMSSGPVAESWCYTQIKVVKFSYMWTINNFSFCREEMGEVIKSSTFSSGANDKLKWCLRVNPKGLDEESKDYLSLYLLLVSCPKSEVRAKFKFSILNAKGEETKAMESQRAYRFVQGKDWGFKKFIRRDFLLDEANGLLPDDKLTLFCEVSVVQDSVNISGQNTMNMVKVPECRLADELGGLWENSRFTDCCLCVAGQEFQAHKAILAARSPVFSAMFEHEMEESKKNRVEINDVEPEVFKEMMCFIYTGKAPNLDKMADDLLAAADKYALERLKVMCEDALCSNLSVENAAEILILADLHSADQLKTQAVDFINYHASDVLETSGWKSMVVSHPHLVAEAYRSLASAQCPFLGPPRKRLKQS
# partner: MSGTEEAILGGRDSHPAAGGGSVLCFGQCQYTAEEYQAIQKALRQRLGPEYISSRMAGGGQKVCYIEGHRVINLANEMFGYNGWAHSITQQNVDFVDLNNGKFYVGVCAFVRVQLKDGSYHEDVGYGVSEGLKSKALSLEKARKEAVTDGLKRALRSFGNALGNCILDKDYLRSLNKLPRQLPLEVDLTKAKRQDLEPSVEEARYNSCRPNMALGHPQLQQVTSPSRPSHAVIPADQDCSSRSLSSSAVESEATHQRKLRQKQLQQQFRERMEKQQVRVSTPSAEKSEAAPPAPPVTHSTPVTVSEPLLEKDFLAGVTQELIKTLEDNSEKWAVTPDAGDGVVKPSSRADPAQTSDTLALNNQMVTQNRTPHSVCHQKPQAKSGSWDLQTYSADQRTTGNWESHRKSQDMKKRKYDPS
# B2: Speckle-type POZ protein (Homo sapiens), O43791 (parent)
# chain: B1 chain
# partner: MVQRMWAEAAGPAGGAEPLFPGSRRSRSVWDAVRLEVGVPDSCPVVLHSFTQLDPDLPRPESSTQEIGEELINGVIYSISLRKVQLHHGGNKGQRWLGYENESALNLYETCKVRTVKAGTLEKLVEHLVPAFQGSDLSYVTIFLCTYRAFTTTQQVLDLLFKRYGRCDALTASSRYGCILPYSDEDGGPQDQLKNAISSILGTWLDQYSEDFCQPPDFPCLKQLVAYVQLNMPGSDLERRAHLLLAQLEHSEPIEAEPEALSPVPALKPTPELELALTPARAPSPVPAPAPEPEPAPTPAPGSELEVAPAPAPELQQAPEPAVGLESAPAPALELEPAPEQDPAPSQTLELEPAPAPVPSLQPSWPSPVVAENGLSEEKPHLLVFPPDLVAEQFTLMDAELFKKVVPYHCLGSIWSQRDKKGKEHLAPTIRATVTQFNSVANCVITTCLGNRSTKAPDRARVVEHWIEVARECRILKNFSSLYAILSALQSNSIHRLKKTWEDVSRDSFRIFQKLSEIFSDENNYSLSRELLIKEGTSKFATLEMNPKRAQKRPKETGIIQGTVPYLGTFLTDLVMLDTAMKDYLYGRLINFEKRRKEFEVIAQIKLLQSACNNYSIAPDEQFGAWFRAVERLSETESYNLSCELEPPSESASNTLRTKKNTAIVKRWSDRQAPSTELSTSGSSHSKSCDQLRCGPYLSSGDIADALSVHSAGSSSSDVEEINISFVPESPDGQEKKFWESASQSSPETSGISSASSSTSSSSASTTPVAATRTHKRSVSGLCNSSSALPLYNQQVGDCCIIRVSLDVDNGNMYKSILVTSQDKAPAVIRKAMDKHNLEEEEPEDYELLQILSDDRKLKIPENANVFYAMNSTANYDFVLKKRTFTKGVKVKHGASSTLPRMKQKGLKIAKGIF
# Variants of: B1
# Conditions: with rad52_human RAD52, P43351
row,Variant,effect of a mutation on the interaction
1,MSRVPSPPPPAEMSSGPVAESWCYTQIKVVKFSYMWTINNFSFCREEMGEVIKSSTFSSGANDKLKWCLRVNPKGLDEESKDYLSLCLLLVSCPKSEVRAKFKFSILNAKGEETKAMESQRAYRFVQGKDWGFKKFIRRDFLLDEANGLLPDDKLTLFCEVSVVQDSVNISGQNTMNMVKVPECRLADELGGLWENSRFTDCCLCVAGQEFQAHKAILAARSPVFSAMFEHEMEESKKNRVEINDVEPEVFKEMMCFIYTGKAPNLDKMADDLLAAADKYALERLKVMCEDALCSNLSVENAAEILILADLHSADQLKTQAVDFINYHASDVLETSGWKSMVVSHPHLVAEAYRSLASAQCPFLGPPRKRLKQS [Y87C],with no effect

# Variants of: B1
# Conditions: with rad52_human RAD52, P43351
# Remark: another data set of the same source
row,Variant,effect of a mutation on the interaction
1,MSRVPSPPPPAEMSSGPVAESWCYTQIKVVKFSYMWTINNFSFCREEMGEVIKSSTFSSGANDKLKWCLRVNPKGLDEESKDYLSLYLLLVSCPKSEVRAKFKFSILNAKGEETKAMESQRAYRFVQGKDWGLKKFIRRDFLLDEANGLLPDDKLTLFCEVSVVQDSVNISGQNTMNMVKVPECRLADELGGLWENSRFTDCCLCVAGQEFQAHKAILAARSPVFSAMFEHEMEESKKNRVEINDVEPEVFKEMMCFIYTGKAPNLDKMADDLLAAADKYALERLKVMCEDALCSNLSVENAAEILILADLHSADQLKTQAVDFINYHASDVLETSGWKSMVVSHPHLVAEAYRSLASAQCPFLGPPRKRLKQS [F133L],with no effect

# Variants of: B1
# Conditions: with rad52_human RAD52, P43351
# Remark: another data set of the same source
row,Variant,effect of a mutation on the interaction
1,MSRVPSPPPPAEMSSGPVAESWCYTQIKVVKFSYMWTINNFSFCREEMGEVIKSSTFSSGANDKLKWCLRVNPKGLDEESKDYLSLYLLLVSCPKSEVRAKFKFSILNAKGEETKAMESQRAYRFVQGKDWGVKKFIRRDFLLDEANGLLPDDKLTLFCEVSVVQDSVNISGQNTMNMVKVPECRLADELGGLWENSRFTDCCLCVAGQEFQAHKAILAARSPVFSAMFEHEMEESKKNRVEINDVEPEVFKEMMCFIYTGKAPNLDKMADDLLAAADKYALERLKVMCEDALCSNLSVENAAEILILADLHSADQLKTQAVDFINYHASDVLETSGWKSMVVSHPHLVAEAYRSLASAQCPFLGPPRKRLKQS [F133V],with no effect

# Variants of: B1
# Conditions: with rad52_human RAD52, P43351
# Remark: another data set of the same source
row,Variant,effect of a mutation on the interaction
1,MSRVPSPPPPAEMSSGPVAESWCYTQIKVVKFSYMWTINNFSFCREEMGEVIKSSTFSSGANDKLKWCLRVNPKGLDEESKDYLSLYLLLVSCPKSEVRAKCKFSILNAKGEETKAMESQRAYRFVQGKDWGFKKFIRRDFLLDEANGLLPDDKLTLFCEVSVVQDSVNISGQNTMNMVKVPECRLADELGGLWENSRFTDCCLCVAGQEFQAHKAILAARSPVFSAMFEHEMEESKKNRVEINDVEPEVFKEMMCFIYTGKAPNLDKMADDLLAAADKYALERLKVMCEDALCSNLSVENAAEILILADLHSADQLKTQAVDFINYHASDVLETSGWKSMVVSHPHLVAEAYRSLASAQCPFLGPPRKRLKQS [F102C],with no effect

# Variants of: B2
# Conditions: with gnds_human RALGDS
row,Variant,effect of a mutation on the interaction
1,MSRVPSPPPPAEMSSGPVAESWCYTQIKVVKFSYMWTINNFSFCREEMGEVIKSSTFSSGANDKLKWCLRVNPKGLDEESKDYLSLCLLLVSCPKSEVRAKFKFSILNAKGEETKAMESQRAYRFVQGKDWGFKKFIRRDFLLDEANGLLPDDKLTLFCEVSVVQDSVNISGQNTMNMVKVPECRLADELGGLWENSRFTDCCLCVAGQEFQAHKAILAARSPVFSAMFEHEMEESKKNRVEINDVEPEVFKEMMCFIYTGKAPNLDKMADDLLAAADKYALERLKVMCEDALCSNLSVENAAEILILADLHSADQLKTQAVDFINYHASDVLETSGWKSMVVSHPHLVAEAYRSLASAQCPFLGPPRKRLKQS [Y87C],with no effect

# Variants of: B2
# Conditions: with gnds_human RALGDS
# Remark: another data set of the same source
row,Variant,effect of a mutation on the interaction
1,MSRVPSPPPPAEMSSGPVAESWCYTQIKVVKFSYMWTINNFSFCREEMGEVIKSSTFSSGANDKLKWCLRVNPKGLDEESKDYLSLYLLLVSCPKSEVRAKCKFSILNAKGEETKAMESQRAYRFVQGKDWGFKKFIRRDFLLDEANGLLPDDKLTLFCEVSVVQDSVNISGQNTMNMVKVPECRLADELGGLWENSRFTDCCLCVAGQEFQAHKAILAARSPVFSAMFEHEMEESKKNRVEINDVEPEVFKEMMCFIYTGKAPNLDKMADDLLAAADKYALERLKVMCEDALCSNLSVENAAEILILADLHSADQLKTQAVDFINYHASDVLETSGWKSMVVSHPHLVAEAYRSLASAQCPFLGPPRKRLKQS [F102C],with no effect

# Variants of: B2
# Conditions: with gnds_human RALGDS
# Remark: another data set of the same source
row,Variant,effect of a mutation on the interaction
1,MSRVPSPPPPAEMSSGPVAESWCYTQIKVVKFSYMWTINNFSFCREEMGEVIKSSTFSSGANDKLKWCLRVNPKGLDEESKDYLSLYLLLVSCPKSEVRAKFKFSILNAKGEETKAMESQRAYRFVQGKDWGLKKFIRRDFLLDEANGLLPDDKLTLFCEVSVVQDSVNISGQNTMNMVKVPECRLADELGGLWENSRFTDCCLCVAGQEFQAHKAILAARSPVFSAMFEHEMEESKKNRVEINDVEPEVFKEMMCFIYTGKAPNLDKMADDLLAAADKYALERLKVMCEDALCSNLSVENAAEILILADLHSADQLKTQAVDFINYHASDVLETSGWKSMVVSHPHLVAEAYRSLASAQCPFLGPPRKRLKQS [F133L],with no effect

# Variants of: B2
# Conditions: with gnds_human RALGDS
# Remark: another data set of the same source
row,Variant,effect of a mutation on the interaction
1,MSRVPSPPPPAEMSSGPVAESWCYTQIKVVKFSYMWTINNFSFCREEMGEVIKSSTFSSGANDKLKWCLRVNPKGLDEESKDYLSLYLLLVSCPKSEVRAKFKFSILNAKGEETKAMESQRAYRFVQGKDWGVKKFIRRDFLLDEANGLLPDDKLTLFCEVSVVQDSVNISGQNTMNMVKVPECRLADELGGLWENSRFTDCCLCVAGQEFQAHKAILAARSPVFSAMFEHEMEESKKNRVEINDVEPEVFKEMMCFIYTGKAPNLDKMADDLLAAADKYALERLKVMCEDALCSNLSVENAAEILILADLHSADQLKTQAVDFINYHASDVLETSGWKSMVVSHPHLVAEAYRSLASAQCPFLGPPRKRLKQS [F133V],with no effect
